tested on: Escherichia coli TOP10; experiment: shrunken log2 fold change of peptide-encoding DNA abundance (4.5 h post-induction vs induction); higher = less antimicrobial activity (less host growth inhibition); conditions: time post-induction: 4.5 h; library: site-saturation at positions 5, 18, 19, 20
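Further: peptides expressed intracellularly from a pBAD plasmid library in pooled LB shake-flask culture, induced with 0.3% L-arabinose, DNA abundance read by NGS, three biological replicates, DESeq2 with apeglm shrinkage.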

| Sequence | shrunken log2 fold change |
| --- | --- |
| RRIRRRPPRLPRPRPRPSHLPRP | -0.21 |
| RRIRYRPPRLPRPRPRPNNFPRP | -0.418 |
| RRIRFRPPRLPRPRPRPTQGPRP | 0.215 |
| RRIRERPPRLPRPRPRPPETPRP | -0.0785 |
| RRIRMRPPRLPRPRPRPESIPRP | 0.522 |
| RRIRLRPPRLPRPRPRPGPEPRP | 0.685 |
| RRIRYRPPRLPRPRPRPHTYPRP | -0.189 |
| RRIRERPPRLPRPRPRPSYVPRP | -0.264 |
| RRIRPRPPRLPRPRPRPPEAPRP | 0.0126 |
| RRIRERPPRLPRPRPRPHDYPRP | 0.0456 |
| RRIRIRPPRLPRPRPRPAFSPRP | -0.155 |
| RRIRDRPPRLPRPRPRPSAPPRP | 0.0189 |
| RRIRDRPPRLPRPRPRPHMYPRP | -0.102 |
| RRIRARPPRLPRPRPRPLEKPRP | 0.439 |
| RRIRWRPPRLPRPRPRPLNGPRP | -0.0406 |
| RRIRHRPPRLPRPRPRPWSFPRP | 0.0231 |
| RRIRRRPPRLPRPRPRPNTRPRP | 0.162 |
| RRIRIRPPRLPRPRPRPDVRPRP | 0.0768 |
| RRIRIRPPRLPRPRPRPNPRPRP | -0.225 |
| RRIRIRPPRLPRPRPRPNPSPRP | 0.0641 |
| RRIRSRPPRLPRPRPRPCIWPRP | -0.121 |
| RRIRMRPPRLPRPRPRPWPAPRP | 0.807 |
| RRIRVRPPRLPRPRPRPCGDPRP | -0.18 |
| RRIRWRPPRLPRPRPRPVSEPRP | 0.0771 |
| RRIRIRPPRLPRPRPRPAIHPRP | -0.475 |

| Sequence | shrunken log2 fold change |
| --- | --- |
| RRIRVRPPRLPRPRPRPSREPRP | 0.0823 |
| RRIRCRPPRLPRPRPRPMWMPRP | 0.174 |
| RRIRCRPPRLPRPRPRPSEHPRP | -0.236 |
| RRIRRRPPRLPRPRPRPDPCPRP | -0.00607 |
| RRIRIRPPRLPRPRPRPSVDPRP | -0.326 |
| RRIRHRPPRLPRPRPRPECCPRP | 0.203 |
| RRIRQRPPRLPRPRPRPHAHPRP | 0.000761 |
| RRIRARPPRLPRPRPRPQGRPRP | 0.104 |
| RRIRARPPRLPRPRPRPYAFPRP | -0.125 |
| RRIRLRPPRLPRPRPRPHYFPRP | -0.404 |
| RRIRFRPPRLPRPRPRPFRFPRP | -0.129 |
| RRIRGRPPRLPRPRPRPHFRPRP | 0.199 |
| RRIRIRPPRLPRPRPRPVSPPRP | 0.188 |
| RRIRTRPPRLPRPRPRPTVHPRP | -0.199 |
| RRIRLRPPRLPRPRPRPSQQPRP | -0.0225 |
| RRIRNRPPRLPRPRPRPNQRPRP | 0.0166 |
| RRIRDRPPRLPRPRPRPCLMPRP | 0.209 |
| RRIRTRPPRLPRPRPRPIMEPRP | -0.409 |
| RRIRNRPPRLPRPRPRPEWFPRP | -0.00884 |
| RRIRVRPPRLPRPRPRPCRAPRP | 0.0373 |
| RRIRIRPPRLPRPRPRPWKAPRP | -0.00804 |
| RRIRCRPPRLPRPRPRPEAWPRP | 0.976 |
| RRIRQRPPRLPRPRPRPWRHPRP | 0.0151 |
| RRIRSRPPRLPRPRPRPWTQPRP | 0.149 |
| RRIRMRPPRLPRPRPRPWVAPRP | 0.109 |

| Sequence | shrunken log2 fold change |
| --- | --- |
| RRIRYRPPRLPRPRPRPWPGPRP | -0.15 |
| RRIRRRPPRLPRPRPRPLSPPRP | 0.411 |
| RRIRIRPPRLPRPRPRPLAQPRP | -0.116 |
| RRIRERPPRLPRPRPRPGPRPRP | 0.537 |
| RRIRCRPPRLPRPRPRPYDRPRP | -0.188 |
| RRIRNRPPRLPRPRPRPYMAPRP | -0.0692 |
| RRIRTRPPRLPRPRPRPDHSPRP | -0.0596 |
| RRIRCRPPRLPRPRPRPQSAPRP | -0.0724 |
| RRIRLRPPRLPRPRPRPHINPRP | -0.645 |
| RRIRHRPPRLPRPRPRPRVVPRP | 0.072 |
| RRIRRRPPRLPRPRPRPQRCPRP | 0.177 |
| RRIRSRPPRLPRPRPRPPLHPRP | -0.00448 |
| RRIRIRPPRLPRPRPRPPKRPRP | 0.0802 |
| RRIRERPPRLPRPRPRPCLNPRP | -0.267 |
| RRIRDRPPRLPRPRPRPTSMPRP | 0.104 |
| RRIRIRPPRLPRPRPRPLEFPRP | -0.196 |
| RRIRHRPPRLPRPRPRPNHIPRP | -0.844 |
| RRIRCRPPRLPRPRPRPGTSPRP | 0.0279 |
| RRIRLRPPRLPRPRPRPAPCPRP | 0.0424 |
| RRIRDRPPRLPRPRPRPTDKPRP | -0.118 |
| RRIRSRPPRLPRPRPRPVKKPRP | 0.0525 |
| RRIRARPPRLPRPRPRPCIYPRP | -0.0979 |
| RRIRCRPPRLPRPRPRPPVDPRP | 0.787 |
| RRIRTRPPRLPRPRPRPPIFPRP | -0.245 |
| RRIRPRPPRLPRPRPRPGAMPRP | 0.454 |

| Sequence | shrunken log2 fold change |
| --- | --- |
| RRIRGRPPRLPRPRPRPFVIPRP | 0.215 |
| RRIRCRPPRLPRPRPRPAHYPRP | -0.127 |
| RRIRIRPPRLPRPRPRPWSIPRP | -0.211 |
| RRIRQRPPRLPRPRPRPFFIPRP | -0.365 |
| RRIRMRPPRLPRPRPRPKMPPRP | 0.493 |
| RRIRYRPPRLPRPRPRPWAIPRP | 0.0155 |
| RRIRARPPRLPRPRPRPATEPRP | 0.795 |
| RRIRLRPPRLPRPRPRPVAMPRP | 0.0144 |
| RRIRTRPPRLPRPRPRPTSVPRP | 0.0486 |
| RRIRVRPPRLPRPRPRPEQGPRP | 0.0379 |
| RRIRFRPPRLPRPRPRPRWHPRP | 0.059 |
| RRIRYRPPRLPRPRPRPCYCPRP | -0.185 |
| RRIRKRPPRLPRPRPRPHFWPRP | 0.188 |
| RRIRTRPPRLPRPRPRPSKPPRP | -0.487 |
| RRIRLRPPRLPRPRPRPMCVPRP | -0.231 |
| RRIRGRPPRLPRPRPRPLDGPRP | 0.342 |
| RRIRFRPPRLPRPRPRPGHMPRP | -0.0911 |
| RRIRQRPPRLPRPRPRPIPSPRP | -0.0138 |
| RRIRLRPPRLPRPRPRPIWHPRP | -0.0382 |
| RRIRNRPPRLPRPRPRPWWRPRP | -0.0647 |
| RRIRERPPRLPRPRPRPGKAPRP | -0.0498 |
| RRIRSRPPRLPRPRPRPRPFPRP | 0.188 |
| RRIRFRPPRLPRPRPRPHHEPRP | -0.515 |
| RRIRRRPPRLPRPRPRPAAFPRP | 0.967 |
| RRIRHRPPRLPRPRPRPYCAPRP | -0.346 |

| Sequence | shrunken log2 fold change |
| --- | --- |
| RRIRLRPPRLPRPRPRPHQKPRP | -0.0932 |
| RRIRSRPPRLPRPRPRPDKSPRP | -0.2 |
| RRIRWRPPRLPRPRPRPVKAPRP | 0.284 |
| RRIRKRPPRLPRPRPRPEKDPRP | 0.518 |
| RRIRWRPPRLPRPRPRPVFFPRP | 0.238 |
| RRIRLRPPRLPRPRPRPNYTPRP | -0.91 |
| RRIRWRPPRLPRPRPRPPWRPRP | 0.696 |
| RRIRFRPPRLPRPRPRPYWQPRP | -0.9 |
| RRIRMRPPRLPRPRPRPMLFPRP | 0.138 |
| RRIRHRPPRLPRPRPRPRTMPRP | -0.0671 |
| RRIRWRPPRLPRPRPRPSEDPRP | 0.145 |
| RRIRARPPRLPRPRPRPHLQPRP | 0.439 |
| RRIRQRPPRLPRPRPRPSAWPRP | 0.19 |
| RRIRRRPPRLPRPRPRPGANPRP | 0.208 |
| RRIRLRPPRLPRPRPRPTYKPRP | -0.244 |
| RRIRARPPRLPRPRPRPVCSPRP | 0.665 |
| RRIRRRPPRLPRPRPRPFHFPRP | -0.413 |
| RRIRKRPPRLPRPRPRPEANPRP | 0.0281 |
| RRIRIRPPRLPRPRPRPMTCPRP | -0.00783 |
| RRIRRRPPRLPRPRPRPEIGPRP | 0.244 |
| RRIRHRPPRLPRPRPRPFLIPRP | -0.687 |
| RRIRSRPPRLPRPRPRPYVSPRP | -0.136 |
| RRIRVRPPRLPRPRPRPINTPRP | -1.07 |
| RRIRNRPPRLPRPRPRPCDPPRP | -0.114 |
| RRIRDRPPRLPRPRPRPCWAPRP | 0.125 |

| Sequence | shrunken log2 fold change |
| --- | --- |
| RRIRIRPPRLPRPRPRPEKYPRP | -0.423 |
| RRIRDRPPRLPRPRPRPGDWPRP | 0.92 |
| RRIRVRPPRLPRPRPRPMDEPRP | 0.422 |
| RRIRSRPPRLPRPRPRPDTWPRP | -0.0193 |
| RRIRGRPPRLPRPRPRPQYDPRP | 0.101 |
| RRIRERPPRLPRPRPRPFMWPRP | -0.262 |
| RRIRHRPPRLPRPRPRPYTDPRP | -0.000921 |
| RRIRARPPRLPRPRPRPERQPRP | 1.13 |
| RRIRKRPPRLPRPRPRPYPSPRP | 0.0794 |
| RRIRARPPRLPRPRPRPFAWPRP | 0.122 |
| RRIRYRPPRLPRPRPRPYQFPRP | -0.183 |
| RRIRVRPPRLPRPRPRPKHFPRP | 0.0968 |
| RRIRWRPPRLPRPRPRPQPHPRP | 0.134 |
| RRIRTRPPRLPRPRPRPVHHPRP | -0.321 |
| RRIRGRPPRLPRPRPRPSMVPRP | 0.512 |
| RRIRSRPPRLPRPRPRPKDDPRP | 0.0557 |
| RRIRIRPPRLPRPRPRPEYVPRP | -0.196 |
| RRIRIRPPRLPRPRPRPRLNPRP | -0.247 |
| RRIRYRPPRLPRPRPRPLSKPRP | -1.03 |
| RRIRLRPPRLPRPRPRPCACPRP | -0.385 |
| RRIRERPPRLPRPRPRPACVPRP | 0.24 |
| RRIRSRPPRLPRPRPRPINDPRP | -0.113 |
| RRIRNRPPRLPRPRPRPTVTPRP | 0.354 |
| RRIRDRPPRLPRPRPRPCVYPRP | -0.0478 |
| RRIRQRPPRLPRPRPRPGMDPRP | 0.342 |
